Target: catalase (human) (UniProt P04040)
Chain of UniProt P04040 (P04040 5-501): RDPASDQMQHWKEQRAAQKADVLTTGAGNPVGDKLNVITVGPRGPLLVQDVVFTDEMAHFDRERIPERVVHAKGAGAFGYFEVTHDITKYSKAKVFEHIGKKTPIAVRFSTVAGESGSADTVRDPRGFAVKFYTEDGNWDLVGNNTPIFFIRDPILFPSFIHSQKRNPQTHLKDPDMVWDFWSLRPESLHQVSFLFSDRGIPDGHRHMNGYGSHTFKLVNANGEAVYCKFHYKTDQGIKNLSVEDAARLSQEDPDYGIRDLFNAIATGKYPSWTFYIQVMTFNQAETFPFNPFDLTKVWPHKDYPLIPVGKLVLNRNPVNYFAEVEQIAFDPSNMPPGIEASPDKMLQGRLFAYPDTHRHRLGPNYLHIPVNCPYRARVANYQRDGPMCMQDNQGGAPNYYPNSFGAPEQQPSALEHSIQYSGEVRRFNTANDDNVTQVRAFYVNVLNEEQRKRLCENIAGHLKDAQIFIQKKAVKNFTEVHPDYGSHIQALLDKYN

## Aβ42 E22K (Italian type mutation, glutamic acid 22-to-lysine) (peptide)
  H2O2 level in the blood of healthy controls after a 2 h incubation with E22K (H2O2 kit): 86.5

— PMC7775154
